This series is described as follows: label from the status in PepcDB records.
Regarding “MKRFIVGIDLGTSNTVVAYVEAGGDAIRVFDVDQLVAPGEVGARPLLPSARYHPAPGEFAPGELQLPWRDAEAGDAADAGDAPPAVIGTLARTLGAQVPGRLVTSAKSWLSHASVDRLAPILPWGAADAGGKVSPVAASASYLAHVRAAWNRRFPDAPLEQQDVVLTVPASFDDGARSLTLEAARLAKLPALRLLEEPQAAFYDWLFHHRDSLREELARTRLVLVCDVGGGTTDLTLIKVHAEDGEPQLTRIGVGDHLMLGGDNMDLALARVAEARLARDGGARLSAASLSQLVERCRAAKERLLDANPPDSVGVTLLGAGARLVGGARKTELGRAEVEQIVVDGFFPAGGPDDLPRRSRAALVEFGLPYAADAAVTRHVAAFLHRLAAQSRDALGAAGASDRALPVPDTLLLNGGVFRSRALAERVAGVLGDWRGQPLHVLRNDHPDVAVARGAVAYGLARAGRAPRIGGGSPRSYFLVVDDGAHASRGVCVLPRGTAEGHDVRLDDRVFALRLGHPVRFHLASTVADHAWRAGELADLGAGGFVRLPPVATVVRRQDAGGASERLVKLTTSLTEVGTLDMRCIATDDSSQRWQLEFQLRREPAGGGDAADASRHPSLDEAIELIDRSFGARLANVDPKEVRRLRGQLEQLLGARDAWDIALLRELFGALWARAGRRRRSADHERVWLNLAGYCVRPGFGHPLDDWRVAQLWTLFDDGIQYVNDAQVWSEWWTLWRRAAGGLDDDAQREALDAMAWLQEAARAKRPKLPFDAAKIGDMDIVRLSASLERVPVERKIALGEDLLARLRRPAENHQCWWAIGRIGARRPLYGSAHGVVPPDVAGRWLDAILAVDWKKVEPAAFAAAQIARMTGDRSSDVAADVRERVVRRLAAMNASDAWVRMVSEVVALDSADTGRAFGESLPAGLKLVAD”, the protein production result is “failed”.
The value for “MISDNFFTEHMTIVIAVAIVLLLIIILLTCWKRVPADKALVITGLKKRVLTGKGGIQVPFLETSCIISLEAVSMTTDITEAPSKQGIFVDIAGTAVVKVDNNPEKVLIAVEQFCSGNADRTTQNIKTVVEQILEGKLRGIVSTLTVEQINEDRVAFENSIEDSITRELDNMGLRLLSYTVLKIATQGGYLENRAIPQIAQSKADADIASAERARDTEVKTAAAVREGQKAKLEAEAEIAQSDRDKTIRMEQYRAEQDKIKANADVSYKLQEIENNKIVADRNVELAKKEAQVVEEQLVASVKKPADAKKYETEVQAEANKIKSIKEAEARAQALKIEAQARADAKLLEAKAEAEAIRAQGEAEAEALKAKGIAEAEAKDRLAEAMEKYGEAAMMSMVVERLPEIMAQIAKPMEQIDKITVIDNGSGDGGSKVSKIVSDVAANGFEVLKDLTGADLGEVVRTIANKNSNNKPKTK” was “failed”; that for “MKSRPRLLLVYPATHKLGWVRRFQLPSLSLKQVAAVTPPEWEVVMADEVHEDVPFGEKFDLVGITAMTHQAVRAYEIADRFRAQGVPVVLGGIHPTVLPEEAQAHADAVLIGEAEPVWAKLLDDFLAGRLAPLYRAPIPTDDRLVIPWSRRDILAGRQYLTTQTVQASRGCPYDCPFCTVTPYFGRTFRYRNPDDVLAELRSFEGKLMVFVDDNILGDPVRAKPILEGMAGMNLRWGGQANLRFAEDPELVKLVARSGCIGIFVGIESVTGPHANHAKTGNGSSQIDLVKRVRDAGIVLEASMIFGFDDHDEGIFERTVRFLEECAPSIPTFNVLTPYPGTSLFKQFDREGRLLHKDWSRYDHGQVVFRPKQMTPERLYRGWQEARWEAYRLPAIASRVMKGKGKLVNLAYNFLRRGGIERPDRIVHIREVAEP” was “failed”.
Under “MSFAIEALGQGRFDEVEILCREILKEVPDHFHATHLLGLRAFDGGWLEDAQFLLERAVALDPRSPDAHGNLGAVYFALERFKDARACQEKAIALKPNCPITLTNLGNTLLHLGLAKEAIELHERAIRLKPNYADAFCNRGMAELMIGQFERAGVDFDRALSFQPRHAEAIAGKAMVSLELRHFEAAEAAFEASLALKPGSPRILVQRGRLHLTLYRLEQAAADFDAALAQSPRNELALCWRAQVDIMVRNTAGAMAGVKTLLEVNPQSEAGMSLLASCHANQGDIATALEYLDAALAIAPDFPEAIGYKIFVLDYLPEADFVVQQAARKYWWDQIGAKLPQRTLSPRDLDPDRRIVIGYVASEFRQHSAAYTLLPVMRHHDHAKFKIVCYSCWPLQDGMTEKFKACADVWVEAAQFSDDELADRIQADGIDILIDVSGHTTGSRLHVFSRKPAPIQVTGFGHATGTGLQTMDYVLADPIFIPQSARHLLAEKVYDLPSLITIDPIQDVPPSELPMLRNGYVTFGVFNRILKISDEAIRVWSKVMREVAGSKIIIKNGLLDDPMLRDGLIARFVAQGIAEENVICMGSTSRREHLRAFANVDISLDTFPQNGGISTWESLYAGVPVVAKLGNGSSSRAGGSIVAAVGLGDWVADDDEGYAAIACKFAAQPAHLAKLRADLPAQIANSPAGNVEIYTREVEAGYRQFWRDYCAEASETCDVA” stands “failed”; under “RRLPTVLLKLRMAQHLQAAVAFVEQGHVRVGPDVVTDPAFLVTRSMEDFVTWVDSSKI”, “not failed”; under “MVVNESMYQLGSVRSAIRELFEYGKKRAAIVGKENVYDFSIGNPSIPAPQIVNDTIKELVTDYDSVALHGYTSAQGDVETRAAIAEFLNNTHGTHFNADNLYMTMGAAASLSICFRALTSDAYDEFITIAPYFPEYKVFVNAAGARLVEVPADTEHFQIDFDALEERINAHTRGVIINSPNNPSGTVYSEETIKKLSDLLEKKSKEIGRPIFIIADEPYREIVYDGIKVPFVTKYYDNTLVCYSYSKSLSLPGERIGYVLVPDEVYDKAELYAAVCGAGRALGYVCAPSLFQKMIVKCQGATGDINAYKENRDLLYEGLTRIGYHCFKPDGAFYMFVKALEDDSNAFCEKAKEEDVLIVAADGFGCPGWVRISYCVDREMIKHSMPAFEKIYKKYNK”, “not failed”.
Under “MSPMTIPSEMKALLLVGDGYTKTPSGSALEAMEPYLEQGRIAVPAPGPSQVLIKVNLASINPSDVAFIKGQYGQPRVKGRPAGFEGVGTIVAGGDEPYAKSLVGKRVAFATGLSNWGSWAEYAVAEAAACIPLLDTVRDEDGAAMIVNPLTAIAMFDIVKQEGEKAFVMTAGASQLCKLIIGLAKEEGFRPIVTVRRDEQIALLKDIGAAHVLNEKAPDFEATLREVMKAEQPRIFLDAVTGPLASAIFNAMPKRARWIIYGRLDPDATVIREPGQLIFQHKHIEGFWLSEWMRQFKERRGPAILEAQKRFSDGRWSTDVTAVVPLAEAIAWVPAELTKPNGKVFIRP” stands “not failed”.
As for “MKAVRRQISRFSAHRWWSIVLKEFLQLRRDRVTFGMMIGIPIIQLLLFGFAINSDPRHMPTAVIVAEHSDFSRTFIAALDNTTYFKVVRTMPDEASGREALMRGDVQFVVSIPADFSRRLLHGDRPSILVEADATDPSATGQAIAALAQLPATVARIDLKGALAPLAGGQPAFDVNVHRLYNPEGITQYNIVPGLMGTILTMTMVMMTGLAMTRERERGTMENLLATPVQPLEVISGKIIPYIFIGLIQATIILLAAHFVFGVPFVGSPVAVYLAALLFIAANLTVGITLSSLAANQLQALQLTFFYFLPNILLSGFMFPFAGMPTWAQWIGNVLPMTYFNRMIRSIMLKGSGWIELWPNVWPVALFTVIVLTIAVRFYKRTLD”, the protein production result was “failed”.
Under “MGSGAGNFLKVLLRNFDVLAGPVVSLVYPLYASVQAIETQSHADDKQWLTYWVLYSLLTLIELTFAKLIEWLPIWSYMKLILTCWLVIPYFSGAAYVYEHFVRPVFVNPRSINIWYVPKKMDIFRKPDDVLTAAEKYIAENGPDAFEKILSRADKSKRYNKHEYESYETMYGEGYQY” stands “failed”.
The value for “MSLNIKEASEKSGVSADTIRYYERIGLIPPIHRNESGVRKFGAEDLRWILFTRQMRRAGLSIEALIDYLALFREGEHTLEARAELLKKQRIELKNRIDVMQEALDRLDFKIDNYDTHLIPAQEELKDFNVERSNEGHHHHHH” was “not failed”; that for “MPKPLRCITIAFTDLPNEYKIVLGYLTYHSGRLFNQALYSIKTKQAKVNTYDLYNKLKDNSLHLKNLQSRCAQIVLDELVRAFKNWFEFLHNPEKFKGQEVKPPKFRPKNKPHRTITYDQTGFKVVGTKIRLSLSKALRQWLKEKHGIELKYLWLDTGLELDERLIKNIQIVPKANAKEFELHIIYEKPQNGEKLLKQDKVMVLDPNSSNFFAIVIEGIPQPYIIDGNGLKSLLRKYLKKIASLQSRLEGAKKKGFLTHFLEERISRLWLKVKRLLKHYAHTISNLILELALKYGVRKIYIGDAARNKNKESKLSSVADQIWSLLPHGKVKEYLEYKAKEYGIEVEYISEAYTSGVDSSVEGAVNKETYTPEARVKRGLFRTRLLGFLNADVNACRNLLKKLGKFDLISGILRPIRLRVFFKLRESSSAIPLYGGIGRSRGGVNLPVVVRHSKEGVNPPEAPHL” was “failed”.
The value for “MPDKFKRVHVIVMDSVGIGEAPDAAKFGDFDVDTFGHIAKHVGGLKMPEMGKLGLSNIREIEGIEKAEKPLAYYTKMQEASNGKDTMTGHWEIMG” was “failed”.
As to “MKPTNKAQDDDAVFALSTEVNHKLDLHQSSAEALRLAGVYTRQSCVLDLYHGYRSDDEDTEPDEEDGRLQTVREYHENGMLKLMRTFVRRLRRDATDPTAESSYYDRVVEEKHYDPSGICRVDMHFALGQPYLYRKHYYPNNRLKSEKVFFVEDEETMRARKVGHWRTYYENGNIQSEIIYNKDGVRCGFCKRYAIDGAIEWVKDYTREQEERLQAFNAKRGNLDLTVTDAARVLGLEGDWCSHVVNRTFRSKCAPLHPDWRRTAGDKAGETWEEEQRTEAFIRLSRAREVLLKFLETHPRECSCERGGA”, the protein production result was “not failed”.
Under “MAEIIDKTLNMLVTGQRARVIQIKGKGNSRKRLLEMGMVPGTVLSVTKKAPLGDPVDFKLKGYNLSLRKQEAEMIVVEPLEG” stands “failed”.
As for “MENRRIVIITGANSGIGKEAAQRFANEGDHVIMACRNIAFSRKVQHDIIAASGNDHVDLLELDVSSFASIRTFCTTFNSQYKRLDILIHNAAYFNHGEPYRLSPDGIELTFATNVFGPYLLTSLLRDRLKQSEDPRILHAGSNIIKHFFDPKQTFDLDLLQGNHGTKSYSVYKMYCQSKMALMLLTFQMAEVFADDGIKVNALQINGAKMSKRTIQKVKPWWRPIAWGQNLFFPPPSYMADKYFTICTSDKYKQTTGKLFNDKLEIMEPSPTHYPGFFKQMKLLLGSNVYPAYENTNIREKLWALCKELVGELEHHHHHH”, the protein production entry is on record as “not failed”.
Under “MKLERKNSGIIFLIFGVVFVLNALNPVMELLYIKAKGEIAEAKIVAYDFIQRSSRSGRGSSYKYIPIIEFFDGKEIVQVPVTMNSLNEELDIIGLDVKVSYLKNTPSKVIIDDKLFWLYEISNSLVVVGSFLLMVMLSQMSVETYRGRELTFNVPTKNKIIFLISGLPGVIGTFLSFYYGFITLKYNGLGFTSGTLILSLLIIGVYLLGIVNFLKIKNNYWG” stands “failed”.
Turning to “MEESKELNAVIDVIMLAGTILLKSGSEIHRVEDTMIRIAHSQGIVDCNVLAMPAAIFFSIENTNISRMKRVTSSSYNIEKVCDVNQISRQLVGGQIDLETAFKQLTALQAKPLPYTKLQVTLAATFSAPFFSVMFSGNIYDALGAGVATLFGFAFSLYVEKFIRIPFVTAFAGAFVFGIIAQFWARYTGFPSTADLIIAGAVMPFVPGIALTNAVRDIMTNHINSGMSKMFESLLITLALGAGTSVALVLMN”, the protein production result is listed as “failed”.
The value for “MIHDVDPTNDKYPAALRILHWVRALLTLGLIAAGWMMTVLADTVTEKFTLLYPWHKSFGVLVFLIVLAQLAIRAMSRLPGPAPLPAQERLLSQAVHVAMYALLLLVPLMGYAMSSSFTDSDGVFFFGIHLPELLPKDDDRFRLFQFLHKTLAYSLLALVILHVAGALKHRYFDKDRRTDVLPRII” was “failed”; that for “MRSKFVLFMLMSLLTGSLMANSEAQIYGYVEKATLIDQNLTLSAKLDTGAKSASLHAVNITEIEKKGIPYLRFTVPTKTGDYSFEGEYVGKVKIKVRSSETNPGLLRTTPIKRPVVLLNIKLGDKVRTIKVNLTNRKRFLYPLLLGRDAIIDFNGAVDPALTFTTKSKSPVNNEK” was “failed”.

The values are drawn from a protein production outcome set (Wang et al. 2014).
